For one assay, the target named is GTP-bound Ran (Q69L) (UniProt P62826 1-216, Q69L). Briefly: pull-down.
The target in assay [1] is T1, Karyopherinβ2 (Kapβ2) (human, UniProt Q92973-2 1-890).
T1 sequence (looked up): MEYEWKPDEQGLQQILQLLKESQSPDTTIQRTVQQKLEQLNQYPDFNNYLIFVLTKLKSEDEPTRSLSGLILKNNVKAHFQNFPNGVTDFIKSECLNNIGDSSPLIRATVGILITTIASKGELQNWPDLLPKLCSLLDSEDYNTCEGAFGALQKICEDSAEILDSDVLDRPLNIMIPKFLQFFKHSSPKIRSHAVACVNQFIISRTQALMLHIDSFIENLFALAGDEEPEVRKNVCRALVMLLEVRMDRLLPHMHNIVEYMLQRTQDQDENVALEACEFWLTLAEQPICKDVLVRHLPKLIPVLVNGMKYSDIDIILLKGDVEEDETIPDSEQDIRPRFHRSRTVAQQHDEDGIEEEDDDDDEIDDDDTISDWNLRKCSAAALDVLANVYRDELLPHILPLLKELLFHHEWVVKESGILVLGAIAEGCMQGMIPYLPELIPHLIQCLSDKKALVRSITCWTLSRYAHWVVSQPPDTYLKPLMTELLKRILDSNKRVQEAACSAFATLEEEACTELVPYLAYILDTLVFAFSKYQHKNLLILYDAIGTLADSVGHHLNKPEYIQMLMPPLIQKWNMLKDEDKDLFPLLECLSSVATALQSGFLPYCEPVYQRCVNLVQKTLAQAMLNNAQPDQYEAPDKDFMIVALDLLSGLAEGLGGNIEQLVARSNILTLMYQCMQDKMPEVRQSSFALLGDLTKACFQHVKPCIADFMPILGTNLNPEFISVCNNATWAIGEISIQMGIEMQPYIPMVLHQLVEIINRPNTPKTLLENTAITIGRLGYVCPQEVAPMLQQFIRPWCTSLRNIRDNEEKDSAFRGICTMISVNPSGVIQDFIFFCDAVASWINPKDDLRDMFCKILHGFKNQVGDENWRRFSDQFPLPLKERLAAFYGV
Briefly: chemical tongue.

Assay [2] concerns the target T1, Karyopherinβ2 (Kapβ2). Briefly: SEC. Background: Size exclusion chromatography separates by hydrodynamic size, large species first.
Assay [3] addresses T1, Karyopherinβ2 (Kapβ2). Briefly: AUC.
The target in assay [4] is T2, mCherry fusion LC-domain of FUS (residue 2–214, mCh:FUS-LC) (UniProt P35637 2-214).
T2 sequence (looked up): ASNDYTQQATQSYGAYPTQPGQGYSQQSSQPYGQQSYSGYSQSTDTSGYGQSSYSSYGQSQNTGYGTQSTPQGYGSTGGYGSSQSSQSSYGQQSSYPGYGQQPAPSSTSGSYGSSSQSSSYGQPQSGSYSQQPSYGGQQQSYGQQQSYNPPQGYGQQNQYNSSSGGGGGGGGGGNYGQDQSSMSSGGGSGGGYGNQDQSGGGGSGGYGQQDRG
Briefly: hydrogel binding assay.

In assay [5] the target is T1, Karyopherinβ2 (Kapβ2). Description: hydrogel binding assay.

“And” between values parts separate entries of the source, which are not always exact repeats. Identical values can stand only once.

B1: GST-Kapβ2 (natural protein)
chain: T1 sequence (looked up)
B1: the binding result in the assay with GTP-bound Ran (Q69L) was “binds”.

B2: GR20 (peptide)
peptide: GRGRGRGRGRGRGRGRGRGRGRGRGRGRGRGRGRGRGRGR
Take B2: in the assay with Karyopherinβ2 (Kapβ2) [1], the binding result was “binds”.

B3: maltose-binding protein (MBP)-PR18 (peptide)
chain: PRPRPRPRPRPRPRPRPRPRPRPRPRPRPRPRPRPR
Turning to B3, the stoichiometry N (as a rule, a count of units in the complex or per binding partner) is 2 with Karyopherinβ2 (Kapβ2) [2]; 1 and ≥ 2 with Karyopherinβ2 (Kapβ2) [3].

B4: GFP fusion 20 repeats of PR (GFP:PR20) (peptide)
chain: PRPRPRPRPRPRPRPRPRPRPRPRPRPRPRPRPRPRPRPR
Consider B4, for which the binding result (in assay [4]; in the assay with Karyopherinβ2 (Kapβ2) [5]) was “binds” throughout.

B5: PR20 (peptide)
peptide: B4 chain
For the molecule B5, the binding result with Karyopherinβ2 (Kapβ2) [1] is given as “binds”.

The values are drawn from article doi:10.1101/2024.07.03.601791 (bioRxiv, 2024).
